# Results reported in publication PMC6651611 (Slas Discovery, 2019).
# Experiments:
# [1] = system: O=C(O)[C@H]1CSC(c2nc3ccc(OCc4ccccc4)cc3s2)=N1; assay: purified protein
# [2] = system: COc1ccc2nc(C3=N[C@@H](C(=O)OCCO)CS3)sc2c1; assay: purified protein
# CYP130A1 (CYP130A1-BM3R) = CYP130A1 (CYP130A1-BM3R) (Mycobacterium tuberculosis, UniProt P9WPN5); assay: biochemical
# CYP124A1 = CYP124A1 (Mycobacterium tuberculosis, UniProt P9WPP3); assay type: biochemical
# CYP125A1 = CYP125A1 (Mycobacterium tuberculosis, UniProt P9WPP1); assay type: biochemical
molecule,measurement,setting,value
CYP130A1 (CYP130A1-BM3R) (Mycobacterium tuberculosis H37Rv),Km,[1],37 ± 2.4 µM
same,kcat,[1],0.000667 ± 1.33e-05 s⁻¹
same,kcat/Km,[1],18.3 M⁻¹ s⁻¹
CYP142A1 (Mycobacterium tuberculosis H37Rv),Km,[2],270 ± 22 µM
same,kcat/Km,[2],0.00333 M⁻¹ s⁻¹
Clc1ccc(COC(Cn2ccnc2)c2ccc(Cl)cc2Cl)cc1 (stereo not shown) [econazole],IC50,CYP130A1 (CYP130A1-BM3R),50 ± 10 nM
CC(=O)N1CCN(c2ccc(OC[C@H]3CO[C@](Cn4ccnc4)(c4ccc(Cl)cc4Cl)O3)cc2)CC1 (racemic) [ketoconazole],IC50,CYP130A1 (CYP130A1-BM3R),100 ± 20 nM
Clc1ccc(COC(Cn2ccnc2)c2ccc(Cl)cc2Cl)c(Cl)c1 (stereo not shown) [miconazole],IC50,CYP130A1 (CYP130A1-BM3R),17 ± 3 nM
COc1ccc2nc(C3=N[C@@H](C(=O)OCCO)CS3)sc2c1 [Luciferin-ME EGE],luminescence turnover assay with purified enzyme (S/B 7.3),CYP124A1,Luciferin-ME EGE was the only pro-luciferin substrate metabolized by these three cholesterol-metabolizing Mtb CYPs
same,luminescence turnover assay with purified enzyme (S/B 7.8),CYP125A1,Luciferin-ME EGE was the only pro-luciferin substrate metabolized by these three cholesterol-metabolizing Mtb CYPs
